Test results: patent US20070202051A1, “Aerosols for sinunasal drug delivery” (Pari GmbH, priority 2006, published 2007)

What was measured:
[1] = at 25° C.; cited from earlier work
[2] = Physicochemical properties of the liquid test formulations
[3] = Aerosol droplet size (mass median diameter, geometric standard deviation) by laser diffraction; assay type: physicochemical; conditions: aerosol generator of Example 5 (LC Sprint Junior-like + PARI SINUS); Example 9

Molecule | aqueous solubility [1] | dynamic viscosity of the solution [2] | osmolality of the solution [2] | pH of the solution [2] | surface tension of the solution [2] | mass median diameter of the aerosol [3]
OC[C@H]1O[C@@H]2O[C@H]3[C@H](O)[C@@H](O)[C@@H](O[C@H]4[C@H](O)[C@@H](O)[C@@H](O[C@H]5[C@H](O)[C@@H](O)[C@@H](O[C@H]6[C@H](O)[C@@H](O)[C@@H](O[C@H]7[C@H](O)[C@@H](O)[C@@H](O[C@H]1[C@H](O)[C@H]2O)O[C@@H]7CO)O[C@@H]6CO)O[C@@H]5CO)O[C@@H]4CO)O[C@@H]3CO [α-cyclodextrin] | about 145 mg/mL |  |  |  |  | 
DNAse |  | 0.98 mPa·s | 285 mOsm/kg | 6.5 | 72.1 mN/m | 3.19 µm
